# Reference: the nanobody polyreactivity screen of Harvey et al. (2022)
# Assay: yeast display, Sf9 membrane polyspecificity reagent, FACS + sequencing; frameworks hold sequencing errors
# Outline: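 In a synthetic yeast display library (Saccharomyces cerevisiae BJ5465), nanobody expression was induced with galactose for 36–48 hours. FACS gates were set low and high (top ~1%) using anti-HA fluorescence for expression and streptavidin fluorescence for binding of the Sf9 membrane reagent. Each polyreactivity label is drawn from the gate of origin.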
row,Sequence,polyreactivity (PSR sort gate)
1,QVQLVESGGGLVQAGGSLRLSCAASGLTFGFYAMGWYRQAPGKERELVAGISNGGSTNYADSVKGRFTISRDNAKNTVYLQMNSLKPEDTAVYYCAARLYARRLYDYWGQRTQVTVSS,low polyreactivity
2,QVQLVESGGGLVQAGGSLRLSCAASGLTFGGNAMGWYRQAPGKERELVAAISWSDDTTDYADSVKGRLTISRDNAKNTVYLQMNSLKPEDTAVYYCAARLPFEHVDYWGQGTQVTVSS,low polyreactivity
3,QVQLVESGGGLVQAGGSLRLSCAASGLTFGHYAMGWYRQAPGKERELVATISSRGVSTRYADSVKGRFTISRDNAKNTVYLQMNSLKPEDTAVYYCNARDYTWGKYYSSKIGYYYWGQGTQVTVSS,high polyreactivity
4,QVQLVESGGGLVQAGGSLRLSCAASGLTFGLNAMGWYRQAPGKERELVAAITWSGGSTYYADSVKGRFTISRDNAKNTVYLQMNSLKPEDTAVYYCATDNWSVNGGYNYWGQGTQVTVSS,low polyreactivity
5,QVQLVESGGGLVQAGGSLRLSCAASGLTFGPYAMGWYRQAPGKERELVAAITSGGYTNYADSVKGRFTISRDNAMNTVYLQMNSLKPEDTAVYFCATSYYLAYRSITPYDYWGQGTQVTVSS,low polyreactivity
6,QVQLVESGGGLVQAGGSLRLSCAASGLTFGRYAMGWYRPAPGKERELVAAISSGGSTYYADSVKGRFTISRDNAKNTVYLQMNSLKPEDTAVYYCAADYVGWYFVSGRDYWGQGTQVTVSS,low polyreactivity
7,QVQLVESGGGLVQAGGSLRLSCAASGLTFGTNAMGWYIQAPGKERELVAAISTSSGSTYYADSVKGRFTISRDNAKNTVYLQMNSLKPEDTAVYYCAAVTVTKLSYYRYYYWGQGTQVTVSS,low polyreactivity
8,QVQLVESGGGLVQAGGSLRLSCAASGLTFGYYAMGWYRPAPGKEREFVAAISKSGGGTYYADSVKGRFTISRDNAKNTVYLQMNSLKPEDTAVYYCAARWFVGYNYWGQGTQVTVSS,high polyreactivity
9,QVQLVESGGGLVQAGGSLRLSCAASGLTFHVNAMGWYRQAPGKERELVAGITFSGGSTYYADSVKGRFTISRDNAKNTVYLLMNSLTPEDTAVYYCAADARFYAYYYWGQGTQVSVSS,low polyreactivity
10,QVQLVESGGGLVQAGGSLRLSCAASGLTFHYYAMGRYRQATGKERELVAVIRGSCTSTYYADSVKGRFTISRDNAKNTVYLQMNSLKPEDTAVYYFAAPYQYRRSGRVLGKYDSRGQGTQVTVSS,high polyreactivity
11,QVQLVESGGGLVQAGGSLRLSCAASGLTFIRYAMGWNRQAPGKERELVASISRGGSTYYADSVKGRFTISRDNAKNTVYLQMNSLKPEDTAVYYCAAQHVGHNYYNSGFYYWGQATQVTVSS,low polyreactivity
12,QVQLVESGGGLVQAGGSLRLSCAASGLTFIYKAMAWYRQAPGKERELVAAISGNGGDTYYADSVKGRFTISRDNAKKTVYLQMNSLKPEDTAVYYCAADYAYTPITWDEYWGQGTQVTVSS,low polyreactivity
13,QVQLVESGGGLVQAGGSLRLSCAASGLTFIYYSMGWYRQAPGKERELVAAISVSGGSTYYADSVKGRFTISRDNAKNTVYLQMNSLKPEYTAVYYCAGDWFVHKPRYQYSFDYWGQGTQVTVSS,low polyreactivity
14,QVQLVESGGGLVQAGGSLRLSCAASGLTFKRNAMGWYRPAPGKERELVAAIRYSTDSTNCADSVKGRFTISRDNAKNTVYLQMNSLKPEDTAVYYCAKDKQDYEYWGQGTQVTVSS,low polyreactivity
15,QVQLVESGGGLVQAGGSLRLSCAASGLTFKYYAMGWYRQAPGKERELVAAITSTGGRTYYADSVKGRFTISRDNAKNTVYLQMNSLKPEDTAVYYCAKDTHWAYYWGQGTQVTVSS,low polyreactivity
16,QVQLVESGGGLVQAGGSLRLSCAASGLTFLDYAMGWYRPAPGKERELVAAITSGGSTNYADSVKGRFTISRDNAKNTVYLQMNSLKPEDTAVYYCATDLEVSAYDYWGQGTQVTVSS,low polyreactivity
17,QVQLVESGGGLVQAGGSLRLSCAASGLTFLNKAMGWYREAPGKERELVAAISRGGSTNYADSVKGRFTISRDNAKNTVYLQMNSLKPQDTAGYYCAAQIFESAYGMDYWGQGTQVTVSS,low polyreactivity
18,QVQLVESGGGLVQAGGSLRLSCAASGLTFLVYAMGWYRQAPGKERELVAAITSIGDSTFYADSVKGRFTISRDNAKNTVYLQMNSLKPEDSAVYYCNADGPAGDIKFTLMDYDYWGQGTQVTVSS,low polyreactivity
19,QVQLVESGGGLVQAGGSLRLSCAASGLTFLVYAMGWYRQAPGKERELVAAITSIGDSTFYADSVKGRFTISRDNAKNTVYLQMNSLKPEDTAVYYCNADGPAGDIKFTLLDYDYWGQGTQVTVSS,low polyreactivity
20,QVQLVESGGGLVQAGGSLRLSCAASGLTFLWYAMGWYRQAPGKERELVAAITSGGRTKYADSVKGRFTISRDNAKNTVYLQMNSLKPEDTAVYYCAAYTQWWGYDYWGQGTQVTVSS,high polyreactivity
21,QVQLVESGGGLVQAGGSLRLSCAASGLTFNDYAMGWYRQAPGKERELVAAISDIGGGTYYADSVKGRFTISRDNAKNTVYLQMNSLKPEETAVYYCAAEWQDWYGVDSWGQGTQVTVSS,low polyreactivity
22,QVQLVESGGGLVQAGGSLRLSCAASGLTFNHNAMGWYRQAPGKERELVAAISRRGGSTYYADSVKGRFTISRDNAKNTVYLQMNSLKPEDTAVYYCNAPVKVRATTNWEYDYWGQGTQVTVSS,high polyreactivity

row,Sequence,polyreactivity (PSR sort gate)
1,QVQLVESGGGLVQAGGSLRLSCAASGLTFNRNAMGWYRQAPGKERELVATISGSGASTYYADSVKGRFTISRDYAKNTVYLQMNSLKPEDTAVYDCAARWHYSWGSYGFDYWGQGTQVTVSS,high polyreactivity
2,QVQLVESGGGLVQAGGSLRLSCAASGLTFNTYAMGWYRQAPGKERELVAAITKGGGRTYYADSVKGRFTISRDNAKNTVYLQMNSLKPEDTAVYYCAAYGYIYRVGYANGVVTSQDDYWGQGTQVTVSS,high polyreactivity
3,QVQLVESGGGLVQAGGSLRLSCAASGLTFNVNAMGWYRQAPGKERELVARINTSGGSTSYADSVKGRFTISRDNAKNTVYLQMNSLKPEDTAVYYCAADRARYYSEYDYWGQGTQVTVSS,low polyreactivity
4,QVQLVESGGGLVQAGGSLRLSCAASGLTFNVYAMGWYRQAPGKERELVASITKRGGSTYYADSVKGRFTISRDNAKNTVYLQMNSLKPEDTAVYYCAADGLTGSKYRATGYYWGQGTQVTVSS,high polyreactivity
5,QVQLVESGGGLVQAGGSLRLSCAASGLTFPRNTMGWYRQAPGKERELVAVISSSGGITYYADSVKGRFTISRDNAKNTVYLQMNSLKPEDTAVYYCAARTRVPRMGYWGQGTQVTVSS,high polyreactivity
6,QVQLVESGGGLVQAGGSLRLSCAASGLTFPSNAMGWYRQAPGKERELVAAITSVGITYYADSVKGRFTISRDNAKNTVYLQMNSLKPEDTAVYYCNAPPGGGWYARDDNWGQGTQVTVSS,low polyreactivity
7,QVQLVESGGGLVQAGGSLRLSCAASGLTFPWYAMGWYRQAPGKERELVASINSSTGSTYYADSVKGRFTISRDNAKNTVYLQMNSLKPEDTAVYYCAAVEYGNMDWGQGTQVTVSS,low polyreactivity
8,QVQLVESGGGLVQAGGSLRLSCAASGLTFPYYAMGWYRQAPGKERELVAAISNSGGSTYYADSVKGRFTISRDNAKNTVYLQMNIVKPEDTAVYYCAAYNSYSDYGYWGHGTQVTVSS,high polyreactivity
9,QVQLVESGGGLVQAGGSLRLSCAASGLTFPYYVMGWYRQAPGKERELVAAISSSGGSTYYADSVKGRFTISRDNAKNTVYLQMNSLKPEDTAVYYCNALGHFSKIATYDYWGQGTQVTVSS,low polyreactivity
10,QVQLVESGGGLVQAGGSLRLSCAASGLTFQWNAMGWYRQAPGKERELVAGITDIGDSTYYADSVKGRFTISRDNAKNTVYFQMNSLKPEDTAVYYCNATSGYKHAWRSENGYWGQGTQVTVSS,low polyreactivity
11,QVQLVESGGGLVQAGGSLRLSCAASGLTFQYYTMGWYRQAPGKERELVAAINWSGGSTYYADSVKGRFTISRDNAKNTVYLQMNSLKPVDTAVYYCNAVRFVEHDYWGQGTQVTVSS,high polyreactivity
12,QVQLVESGGGLVQAGGSLRLSCAASGLTFRINTMGWYRQAPGKERELVASISKSGSSTYYADSVKGRFTISRDNAKNTVYLQMNSLKPEDTAVYYCAARTRTLYVTYYSWGQGTQVTVSS,high polyreactivity
13,QVQLVESGGGLVQAGGSLRLSCAASGLTFRKYAMGWYRQAPGKERELVAAITGSGGRTYYADSVKGRFTISRDNAKNTVYLQMNSLKPEDTAVYYCAADDYFHDDYCGQGTQVTVSS,high polyreactivity
14,QVQLVESGGGLVQAGGSLRLSCAASGLTFRKYAMGWYRQAPGKERELVATISRNGGSTYFADSVKGRFTISRDNAKNTVYLQMNSLKPEDTAVYYCAADYYTYDYAGYGYWGQGTQVTVSS,high polyreactivity
15,QVQLVESGGGLVQAGGSLRLSCAASGLTFRRYAMGWYRQAPGKERELVAAISSSGGNTYYADSVKGRFTISRDNAKNTVYLQMNSLQPEDTAVYYCATRYKSPSFDYWGQGTQVTVSS,high polyreactivity
16,QVQLVESGGGLVQAGGSLRLSCAASGLTFRSYTMGWYRQAPGKERELVAAISSGGSTYYADSVKGRFTISRDNAKHTVYLKMNSRKPEDTAVYYCAAPRGHGKYYSWGQGTQVNVSS,high polyreactivity
17,QVQLVESGGGLVQAGGSLRLSCAASGLTFRSYTMGWYRQAPGTERELVAAISSGGSTYYADSVKGRFTISRDNAKNTVYLQMNSLKPEDTAVYYCAAPRGHGKYYSWGQGTQVTVSS,high polyreactivity
18,QVQLVESGGGLVQAGGSLRLSCAASGLTFRTYAMGWYRQAPGKERELVAAITWSGDSTYADSVKGRFTISRDNAKNTVYLQMNSLKPEDTAVYYCATKGYFSYHPYDYWGQGTQVTVSS,low polyreactivity
19,QVQLVESGGGLVQAGGSLRLSCAASGLTFRVYAMGWYRQAPGKERELVASISRTGSTTYADSVKGRFTISRDNAKNTVYLQMNSLKPEDTAVYYCNARYYVLLWDSLAREYWGQGTQVTVSS,high polyreactivity
20,QVQLVESGGGLVQAGGSLRLSCAASGLTFRWYALGWFRQATGKERELVAAISSGGRTYYADSVKGRFTISRDNANNTVYLQMNSRKPEDTAVYYCNKRTLDYGFGSYGREYWGQGTQVTVSS,high polyreactivity
21,QVQLVESGGGLVQAGGSLRLSCAASGLTFRWYAMGWYRQEPGKERELVAAISSSGNTNYADSVKGRFTISRDNAKNTVYLQMNSLKPGDSAVYYCAASYYSYPPGLSQTRLTYYYWGQGTQLTVSS,high polyreactivity
